# ± gives the uncertainty stated by the source.
# B1: GA-binding protein alpha chain, residues 172 to 250; numbered along this chain, Q06546 (parent)
# chain: GYRKEQERLGIPYDPIQWSTDQVLHWVVWVMKEFSMTDIDLTTLNISGRELCSLNQEDFFQRVPRGEILWSHLELLRKY
# Variants of: B1
# Assay: abundance fitness (aPCA) (normalised: wild type 0, dead -1); higher = more abundant; growth selection in yeast, the domain comes from the species named
# Conditions: Homo sapiens
row,Variant,abundance fitness
1,GYRKEQERLGIPYDPIQWSHDQVLHWVVWVMKEFSMTDIDLTTLNISGRELCSLNQEDFFQRVPRGEILWSHLELLRKY [T20H],-0.047 ± 0.11
2,GYRKEQERLGIPYDPIQWSIDQVLHWVVWVMKEFSMTDIDLTTLNISGRELCSLNQEDFFQRVPRGEILWSHLELLRKY [T20I],-0.101 ± 0.12
3,GYRKEQERLGIPYDPIQWSKDQVLHWVVWVMKEFSMTDIDLTTLNISGRELCSLNQEDFFQRVPRGEILWSHLELLRKY [T20K],0.043 ± 0.069
4,GYRKEQERLGIPYDPIQWSLDQVLHWVVWVMKEFSMTDIDLTTLNISGRELCSLNQEDFFQRVPRGEILWSHLELLRKY [T20L],-0.318 ± 0.043
5,GYRKEQERLGIPYDPIQWSMDQVLHWVVWVMKEFSMTDIDLTTLNISGRELCSLNQEDFFQRVPRGEILWSHLELLRKY [T20M],-0.15 ± 0.057
6,GYRKEQERLGIPYDPIQWSNDQVLHWVVWVMKEFSMTDIDLTTLNISGRELCSLNQEDFFQRVPRGEILWSHLELLRKY [T20N],0.103 ± 0.099
7,GYRKEQERLGIPYDPIQWSPDQVLHWVVWVMKEFSMTDIDLTTLNISGRELCSLNQEDFFQRVPRGEILWSHLELLRKY [T20P],-0.013 ± 0.053
8,GYRKEQERLGIPYDPIQWSQDQVLHWVVWVMKEFSMTDIDLTTLNISGRELCSLNQEDFFQRVPRGEILWSHLELLRKY [T20Q],-0.043 ± 0.063
9,GYRKEQERLGIPYDPIQWSRDQVLHWVVWVMKEFSMTDIDLTTLNISGRELCSLNQEDFFQRVPRGEILWSHLELLRKY [T20R],-0.022 ± 0.032
10,GYRKEQERLGIPYDPIQWSSDQVLHWVVWVMKEFSMTDIDLTTLNISGRELCSLNQEDFFQRVPRGEILWSHLELLRKY [T20S],0.041 ± 0.036
11,GYRKEQERLGIPYDPIQWSVDQVLHWVVWVMKEFSMTDIDLTTLNISGRELCSLNQEDFFQRVPRGEILWSHLELLRKY [T20V],-0.03 ± 0.039
12,GYRKEQERLGIPYDPIQWSWDQVLHWVVWVMKEFSMTDIDLTTLNISGRELCSLNQEDFFQRVPRGEILWSHLELLRKY [T20W],-0.516 ± 0.061
13,GYRKEQERLGIPYDPIQWSYDQVLHWVVWVMKEFSMTDIDLTTLNISGRELCSLNQEDFFQRVPRGEILWSHLELLRKY [T20Y],-0.529 ± 0.11
14,GYRKEQERLGIPYDPIQWSTAQVLHWVVWVMKEFSMTDIDLTTLNISGRELCSLNQEDFFQRVPRGEILWSHLELLRKY [D21A],-0.031 ± 0.044
15,GYRKEQERLGIPYDPIQWSTFQVLHWVVWVMKEFSMTDIDLTTLNISGRELCSLNQEDFFQRVPRGEILWSHLELLRKY [D21F],-0.391 ± 0.094
16,GYRKEQERLGIPYDPIQWSTGQVLHWVVWVMKEFSMTDIDLTTLNISGRELCSLNQEDFFQRVPRGEILWSHLELLRKY [D21G],-0.002 ± 0.031
17,GYRKEQERLGIPYDPIQWSTHQVLHWVVWVMKEFSMTDIDLTTLNISGRELCSLNQEDFFQRVPRGEILWSHLELLRKY [D21H],-0.049 ± 0.054
18,GYRKEQERLGIPYDPIQWSTIQVLHWVVWVMKEFSMTDIDLTTLNISGRELCSLNQEDFFQRVPRGEILWSHLELLRKY [D21I],-0.36 ± 0.068
19,GYRKEQERLGIPYDPIQWSTKQVLHWVVWVMKEFSMTDIDLTTLNISGRELCSLNQEDFFQRVPRGEILWSHLELLRKY [D21K],-0.029 ± 0.084
20,GYRKEQERLGIPYDPIQWSTLQVLHWVVWVMKEFSMTDIDLTTLNISGRELCSLNQEDFFQRVPRGEILWSHLELLRKY [D21L],-0.414 ± 0.042
21,GYRKEQERLGIPYDPIQWSTMQVLHWVVWVMKEFSMTDIDLTTLNISGRELCSLNQEDFFQRVPRGEILWSHLELLRKY [D21M],-0.134 ± 0.09
22,GYRKEQERLGIPYDPIQWSTNQVLHWVVWVMKEFSMTDIDLTTLNISGRELCSLNQEDFFQRVPRGEILWSHLELLRKY [D21N],-0.044 ± 0.073
23,GYRKEQERLGIPYDPIQWSTPQVLHWVVWVMKEFSMTDIDLTTLNISGRELCSLNQEDFFQRVPRGEILWSHLELLRKY [D21P],-0.089 ± 0.03

row,Variant,abundance fitness
1,GYRKEQERLGIPYDPIQWSTRQVLHWVVWVMKEFSMTDIDLTTLNISGRELCSLNQEDFFQRVPRGEILWSHLELLRKY [D21R],-0.096 ± 0.032
2,GYRKEQERLGIPYDPIQWSTSQVLHWVVWVMKEFSMTDIDLTTLNISGRELCSLNQEDFFQRVPRGEILWSHLELLRKY [D21S],-0.029 ± 0.036
3,GYRKEQERLGIPYDPIQWSTTQVLHWVVWVMKEFSMTDIDLTTLNISGRELCSLNQEDFFQRVPRGEILWSHLELLRKY [D21T],-0.114 ± 0.055
4,GYRKEQERLGIPYDPIQWSTVQVLHWVVWVMKEFSMTDIDLTTLNISGRELCSLNQEDFFQRVPRGEILWSHLELLRKY [D21V],-0.172 ± 0.035
5,GYRKEQERLGIPYDPIQWSTWQVLHWVVWVMKEFSMTDIDLTTLNISGRELCSLNQEDFFQRVPRGEILWSHLELLRKY [D21W],-0.185 ± 0.04
6,GYRKEQERLGIPYDPIQWSTYQVLHWVVWVMKEFSMTDIDLTTLNISGRELCSLNQEDFFQRVPRGEILWSHLELLRKY [D21Y],-0.27 ± 0.084
7,GYRKEQERLGIPYDPIQWSTDAVLHWVVWVMKEFSMTDIDLTTLNISGRELCSLNQEDFFQRVPRGEILWSHLELLRKY [Q22A],-0.295 ± 0.052
8,GYRKEQERLGIPYDPIQWSTDCVLHWVVWVMKEFSMTDIDLTTLNISGRELCSLNQEDFFQRVPRGEILWSHLELLRKY [Q22C],-0.543 ± 0.12
9,GYRKEQERLGIPYDPIQWSTDDVLHWVVWVMKEFSMTDIDLTTLNISGRELCSLNQEDFFQRVPRGEILWSHLELLRKY [Q22D],-0.072 ± 0.11
10,GYRKEQERLGIPYDPIQWSTDEVLHWVVWVMKEFSMTDIDLTTLNISGRELCSLNQEDFFQRVPRGEILWSHLELLRKY [Q22E],0 ± 0.027
11,GYRKEQERLGIPYDPIQWSTDFVLHWVVWVMKEFSMTDIDLTTLNISGRELCSLNQEDFFQRVPRGEILWSHLELLRKY [Q22F],-0.792 ± 0.16
12,GYRKEQERLGIPYDPIQWSTDGVLHWVVWVMKEFSMTDIDLTTLNISGRELCSLNQEDFFQRVPRGEILWSHLELLRKY [Q22G],-0.88 ± 0.063
13,GYRKEQERLGIPYDPIQWSTDHVLHWVVWVMKEFSMTDIDLTTLNISGRELCSLNQEDFFQRVPRGEILWSHLELLRKY [Q22H],-0.052 ± 0.085
14,GYRKEQERLGIPYDPIQWSTDIVLHWVVWVMKEFSMTDIDLTTLNISGRELCSLNQEDFFQRVPRGEILWSHLELLRKY [Q22I],-0.899 ± 0.18
15,GYRKEQERLGIPYDPIQWSTDKVLHWVVWVMKEFSMTDIDLTTLNISGRELCSLNQEDFFQRVPRGEILWSHLELLRKY [Q22K],-0.787 ± 0.2
16,GYRKEQERLGIPYDPIQWSTDMVLHWVVWVMKEFSMTDIDLTTLNISGRELCSLNQEDFFQRVPRGEILWSHLELLRKY [Q22M],-0.219 ± 0.06
17,GYRKEQERLGIPYDPIQWSTDNVLHWVVWVMKEFSMTDIDLTTLNISGRELCSLNQEDFFQRVPRGEILWSHLELLRKY [Q22N],-0.039 ± 0.098
18,GYRKEQERLGIPYDPIQWSTDPVLHWVVWVMKEFSMTDIDLTTLNISGRELCSLNQEDFFQRVPRGEILWSHLELLRKY [Q22P],-0.991 ± 0.12
19,GYRKEQERLGIPYDPIQWSTDRVLHWVVWVMKEFSMTDIDLTTLNISGRELCSLNQEDFFQRVPRGEILWSHLELLRKY [Q22R],-0.998 ± 0.094
20,GYRKEQERLGIPYDPIQWSTDSVLHWVVWVMKEFSMTDIDLTTLNISGRELCSLNQEDFFQRVPRGEILWSHLELLRKY [Q22S],-0.646 ± 0.052
21,GYRKEQERLGIPYDPIQWSTDTVLHWVVWVMKEFSMTDIDLTTLNISGRELCSLNQEDFFQRVPRGEILWSHLELLRKY [Q22T],-0.875 ± 0.091
22,GYRKEQERLGIPYDPIQWSTDVVLHWVVWVMKEFSMTDIDLTTLNISGRELCSLNQEDFFQRVPRGEILWSHLELLRKY [Q22V],-0.992 ± 0.097
23,GYRKEQERLGIPYDPIQWSTDWVLHWVVWVMKEFSMTDIDLTTLNISGRELCSLNQEDFFQRVPRGEILWSHLELLRKY [Q22W],-1 ± 0.18

row,Variant,abundance fitness
1,GYRKEQERLGIPYDPIQWSTDYVLHWVVWVMKEFSMTDIDLTTLNISGRELCSLNQEDFFQRVPRGEILWSHLELLRKY [Q22Y],-0.763 ± 0.19
2,GYRKEQERLGIPYDPIQWSTDQALHWVVWVMKEFSMTDIDLTTLNISGRELCSLNQEDFFQRVPRGEILWSHLELLRKY [V23A],-0.575 ± 0.06
3,GYRKEQERLGIPYDPIQWSTDQCLHWVVWVMKEFSMTDIDLTTLNISGRELCSLNQEDFFQRVPRGEILWSHLELLRKY [V23C],-0.53 ± 0.08
4,GYRKEQERLGIPYDPIQWSTDQDLHWVVWVMKEFSMTDIDLTTLNISGRELCSLNQEDFFQRVPRGEILWSHLELLRKY [V23D],-0.873 ± 0.062
5,GYRKEQERLGIPYDPIQWSTDQELHWVVWVMKEFSMTDIDLTTLNISGRELCSLNQEDFFQRVPRGEILWSHLELLRKY [V23E],-0.951 ± 0.18
6,GYRKEQERLGIPYDPIQWSTDQFLHWVVWVMKEFSMTDIDLTTLNISGRELCSLNQEDFFQRVPRGEILWSHLELLRKY [V23F],-0.89 ± 0.16
7,GYRKEQERLGIPYDPIQWSTDQGLHWVVWVMKEFSMTDIDLTTLNISGRELCSLNQEDFFQRVPRGEILWSHLELLRKY [V23G],-0.982 ± 0.08
8,GYRKEQERLGIPYDPIQWSTDQHLHWVVWVMKEFSMTDIDLTTLNISGRELCSLNQEDFFQRVPRGEILWSHLELLRKY [V23H],-0.966 ± 0.2
9,GYRKEQERLGIPYDPIQWSTDQILHWVVWVMKEFSMTDIDLTTLNISGRELCSLNQEDFFQRVPRGEILWSHLELLRKY [V23I],-0.794 ± 0.14
10,GYRKEQERLGIPYDPIQWSTDQKLHWVVWVMKEFSMTDIDLTTLNISGRELCSLNQEDFFQRVPRGEILWSHLELLRKY [V23K],-0.791 ± 0.14
11,GYRKEQERLGIPYDPIQWSTDQLLHWVVWVMKEFSMTDIDLTTLNISGRELCSLNQEDFFQRVPRGEILWSHLELLRKY [V23L],-0.746 ± 0.058
12,GYRKEQERLGIPYDPIQWSTDQMLHWVVWVMKEFSMTDIDLTTLNISGRELCSLNQEDFFQRVPRGEILWSHLELLRKY [V23M],-0.844 ± 0.15
13,GYRKEQERLGIPYDPIQWSTDQPLHWVVWVMKEFSMTDIDLTTLNISGRELCSLNQEDFFQRVPRGEILWSHLELLRKY [V23P],-0.909 ± 0.091
14,GYRKEQERLGIPYDPIQWSTDQQLHWVVWVMKEFSMTDIDLTTLNISGRELCSLNQEDFFQRVPRGEILWSHLELLRKY [V23Q],-0.9 ± 0.13
15,GYRKEQERLGIPYDPIQWSTDQRLHWVVWVMKEFSMTDIDLTTLNISGRELCSLNQEDFFQRVPRGEILWSHLELLRKY [V23R],-0.724 ± 0.066
16,GYRKEQERLGIPYDPIQWSTDQSLHWVVWVMKEFSMTDIDLTTLNISGRELCSLNQEDFFQRVPRGEILWSHLELLRKY [V23S],-0.839 ± 0.067
17,GYRKEQERLGIPYDPIQWSTDQTLHWVVWVMKEFSMTDIDLTTLNISGRELCSLNQEDFFQRVPRGEILWSHLELLRKY [V23T],-0.058 ± 0.037
18,GYRKEQERLGIPYDPIQWSTDQWLHWVVWVMKEFSMTDIDLTTLNISGRELCSLNQEDFFQRVPRGEILWSHLELLRKY [V23W],-1.04 ± 0.16
19,GYRKEQERLGIPYDPIQWSTDQYLHWVVWVMKEFSMTDIDLTTLNISGRELCSLNQEDFFQRVPRGEILWSHLELLRKY [V23Y],-0.804 ± 0.22
20,GYRKEQERLGIPYDPIQWSTDQVAHWVVWVMKEFSMTDIDLTTLNISGRELCSLNQEDFFQRVPRGEILWSHLELLRKY [L24A],-0.083 ± 0.044
21,GYRKEQERLGIPYDPIQWSTDQVCHWVVWVMKEFSMTDIDLTTLNISGRELCSLNQEDFFQRVPRGEILWSHLELLRKY [L24C],0.003 ± 0.046
22,GYRKEQERLGIPYDPIQWSTDQVDHWVVWVMKEFSMTDIDLTTLNISGRELCSLNQEDFFQRVPRGEILWSHLELLRKY [L24D],-0.171 ± 0.11
23,GYRKEQERLGIPYDPIQWSTDQVEHWVVWVMKEFSMTDIDLTTLNISGRELCSLNQEDFFQRVPRGEILWSHLELLRKY [L24E],-0.088 ± 0.055

# Source: the Human Domainome abundance scans (Beltran et al. 2025)
